Three substances from paper PMC6221542 can be followed below.

As a reminder, the Kd is a measure of binding affinity in units of concentration. The low end stands for a tighter complex, the high end for a looser complex.

The assay concerns the target H3K9me3 peptide NH2-…(me3)STGG-minipeg-K(5-fam)-NH2. Briefly: fluorescence polarisation. In general terms: In fluorescence polarisation assays a small probe gives low polarisation when free and higher when bound to something large.
In turn, “CBX1 chromodomain V22E/K25E/D59S (domain or fragment)” registered a Kd of 210 nM. That is a sub-micromolar value.
“CBX1 chromodomain V22E/K25S/D59F (domain or fragment)” had a Kd of 320 nM.
In the case of “CBX1 chromodomain, wild type (domain or fragment)” it was 2780 nM.
